Measurements as given in US5919901.
pIC50: −log10 of the molar value.

Experiments:
Rat Y2 (clone) (rat) = experiment: competition with [125I]PYY on the rat Y2 clone
Rat Y4/PP1 (clone) (rat) = Rat Y4/PP1 (clone) (rat) (UniProt Q63447); experiment: competition with rat [125I]PP on the rat Y4/PP1 clone
Rat Y1 (clone) (rat) = Rat Y1 (clone) (rat) (UniProt P21555); experiment: competition with [125I]PYY on the rat Y1 clone
[1] = target: rat NPY Y5 receptor, clone Y861 (rat); experiment: competition with [125I]PYY, membranes of transfected COS-7 cells
[2] = target: rat NPY Y5 receptor, clone Y217.24.13.6B (rat); experiment: competition with [125I]PYY, membranes of transfected COS-7 cells; first individual value in brackets
[3] = target: rat NPY Y5 receptor, clone Y217.24.13.6B (rat); experiment: competition with [125I]PYY, membranes of transfected COS-7 cells; second individual value in brackets
[4] = target: rat NPY Y5 receptor, clone Y555 (rat); experiment: competition with [125I]PYY, membranes of transfected COS-7 cells; average of two experiments
[5] = target: rat NPY Y5 receptor, clone Y555 (rat); experiment: competition with [125I]PYY, membranes of transfected COS-7 cells; first individual value in brackets
[6] = target: rat NPY Y5 receptor, clone Y555 (rat); experiment: competition with [125I]PYY, membranes of transfected COS-7 cells; second individual value in brackets

Rat Y4/PP1 (clone) (rat), sequence (Q63447 whole entry): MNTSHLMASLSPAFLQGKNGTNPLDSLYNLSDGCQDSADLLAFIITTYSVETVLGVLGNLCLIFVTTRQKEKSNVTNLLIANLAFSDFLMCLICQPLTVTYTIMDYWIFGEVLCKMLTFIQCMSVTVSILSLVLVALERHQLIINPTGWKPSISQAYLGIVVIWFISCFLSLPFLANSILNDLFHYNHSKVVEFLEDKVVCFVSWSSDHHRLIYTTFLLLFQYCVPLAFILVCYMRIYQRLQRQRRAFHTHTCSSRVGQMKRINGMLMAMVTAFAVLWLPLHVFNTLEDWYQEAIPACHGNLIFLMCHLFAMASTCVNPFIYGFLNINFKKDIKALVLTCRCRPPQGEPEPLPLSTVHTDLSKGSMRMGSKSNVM

Substance | pIC50 (Rat Y2 (clone) (rat)) | pIC50 (Rat Y1 (clone) (rat)) | further results
rPYY (from UniProt P10631) (peptide) | 10.10 |  | 
r/hNPY, P01303 (peptide; other documents disagree on this pair) |  |  | pIC50 (Rat Y4/PP1 (clone) (rat)): < 6.00
p(13-36)NPY (from UniProt P01304) (peptide) | 8.89 |  | 
p(Leu^31 Pro^34)NPY (from UniProt P01304) (peptide) | 6.82 | 9.82 | 
r/h(32D-Trp)NPY (from UniProt P01303) (peptide) |  | < 6.00 | pIC50 [1]: 8.15
r/h(10-36)NPY (from UniProt P01303) (peptide) | 9.38 |  | 
h(Leu^31 Pro^34)PYY (from UniProt P10082) (peptide) |  |  | pIC50 [1]: 8.70; pIC50 [2]: 9.19; pIC50 [3]: 9.16
r/h(LP)NPY (from UniProt P01303) (peptide) |  |  | pIC50 [4]: 9.02; pIC50 [5]: 9.00; pIC50 [6]: 9.04
r/h(2-36)NPY (from UniProt P01303) (peptide) | 9.30 |  | 
r/hNPY (from UniProt P01303) (peptide) | 9.62 |  | 
rPP (from UniProt P06303) (peptide) | < 6.00 |  | 
(1-24)NPY (peptide) | < 6.00 | < 6.00 | pIC50 [1]: < 6.00
r/h(Leu^31 Pro^34)(3-36)NPY (from UniProt P01303) (peptide) | 6.81 | 7.36 | 
